{"source": "patent US10590397B2", "about": "(priority 2017, dated 2020)", "molecules": {"B1": {"name": "Os79 (protein, listed as Oryza sativa)", "chain": "MGSMSTPAASANGGQVLLLPFPAAQGHTNPMLQFGRRLAYHGLRPTLVTTRYVLSTTPPPGDPFRVAAISDGFDDASGMAALPDPGEYLRTLEAHGARTLAELLLSEARAGRPARVLVYDPHLPWARRVARAAGVATAAFLSQPCAVDLIYGEVCARRLALPVTPTDARGLYARGVLGVELGPDDVPPFVAAPELTPAFCEQSIEQFAGLEDDDDVLVNSFSDLEPKEAAYMESTWRAKTIGPSLPSFYLDDGRLRSNTAYGFNLFRSTVPCMEWLDKQPPRSVVLVSYGTVSTFDVAKLEELGNGLCNSGKPFLWVVRSNEEHKLSVQLRKKCEKRGLIVPFCPQLEVLAHKATGCFLSHCGWNSTLEAIVNGVPLVAMPHWADQPTISKYVESLWGMGVRVQLDKSGILQREEVERCIREVMDGDRKEDYRRNATRLMKKAKESMQEGGSSDKNIAEFAAKYSN"}, "B2": {"name": "Os79 H122A/L123G (protein, listed as Oryza sativa)", "chain": "B1 chain with H122A, L123G"}, "B3": {"name": "Os79 Q202A (protein, listed as Oryza sativa)", "chain": "B1 chain with Q202A"}, "B4": {"name": "Os79 H122A/L123A (protein, listed as Oryza sativa)", "chain": "B1 chain with H122A, L123A"}, "B5": {"name": "Os79 A384S (protein, listed as Oryza sativa)", "chain": "B1 chain with A384S"}}, "key": {"[1]": {"conditions": "DON as substrate; Michlmayr, et al., 2015; cited from earlier work"}, "[2]": {"assay_type": "biochemical, Fusarium"}, "[3]": {"assay_type": "biochemical, Fusarium", "remark": "listed apart in the source"}}, "note": "Residue numbers refer to the chain shown, from its start. Names and notes keep the numbering of the source. Values joined by “and” are separate entries in the source; they are usually repeats but may differ in a detail not shown here. Equal entries are not always repeated. Where two headings read alike, the source gives them in different places.", "data": [{"molecule": "B1", "values": [{"measurement": "Km", "setting": "[1]", "value": 230, "unit": "µM"}, {"measurement": "kcat", "setting": "[1]", "value": 0.57, "unit": "s⁻¹"}]}, {"molecule": "B2", "values": [{"measurement": "Km", "setting": "[2]", "value": 512, "unit": "µM"}, {"measurement": "Km", "setting": "[3]; 23° C.", "value": "2500 µM and 2510 µM"}]}, {"molecule": "B3", "values": [{"measurement": "KM value compared to WT Os79", "setting": "[3]", "value": "no significant difference"}]}, {"molecule": "B4", "values": [{"measurement": "Km", "setting": "[2]", "value": 926, "unit": "µM"}, {"measurement": "kcat", "setting": "[2]; 23° C.", "value": 1.6, "unit": "s⁻¹"}]}, {"molecule": "B5", "values": [{"measurement": "KM value compared to WT Os79", "setting": "[3]", "value": "similar"}]}]}
